Assay results as given in patent US20220025002A1 (INSTITUT PASTEUR, published 2022).
Bridges are numbered along the chain shown (N, C = ends). Where no end group is shown, it is not given here. [ ]: non-standard residue; d: D form. GluOMe = glutamic acid methyl ester; R8 = C=CCCCCCC[C@@](C)(N)C(=O)O; S5 = C=CCCC[C@](C)(N)C(=O)O; Aib = CC(C)(N)C(=O)O

Assays:
[1] = biological target: T1, CC2-LZ domain of NEMO (mouse CC2-LZ) (mouse, UniProt O88522 251-337, limits assumed); assay: fluorescence polarization, labelled peptide, CC2-LZ titrated
T1 construct: domain: CC2-LZ; The methods say that the mouse CC2-LZ was used in the fluorescence anisotropy assay; also called NOA; UBAN

[2] = biological target: T2, NEMO (NF-kB essential modulator) in 70Z3-C3 pre-B lymphocytes (UniProt O88522 1-412, limits assumed); assay: cell-based or functional assay
[3] = biological target: T1, CC2-LZ domain of NEMO (mouse CC2-LZ); assay: fluorescence polarization, labelled peptide fixed at 0.1 µM, CC2-LZ titrated
Method: (§1) Anisotropy data were calculated using the Magellan software version 6.5. Prior experiments, the mouse CC2-LZ was extensively dialyzed in binding buffer containing 20 mM HEPES pH 7.4, 100 mM NaCl, and 0.05% P20 detergent (v/v). All experiments were performed in a 384 well plate (vol 25 μl) at room temperature. The BODIPY®-labeled peptide concentrations were fixed at 0.1 or 10 μM whereas the CC2-LZ concentration varied from 0 to 100 μM. Reference calibrated at 22 mP, was based on the fluorescence of the peptide alone. Each experimental binding curve was determined from at least 10 independent concentration points. The G-factor was calculated as previously described in Agou et al. [7], with a value of 0.75, which was observed constant within 5% upon all titrations. For analysis, the blank value corresponding to the value of buffer alone, was subtracted from all titration data. The integration time was 20 μs. Experiments were done in duplicate, and the KD was estimated by fitting the anisotropy data with the rectangular hyperbolic binding equation, using KaleidaGraph software as described elsewhere [1].
(§2) For each peptide titration, various concentration of the target ranging from 0 to 100 μM and a fixed concentration of peptide at 0.1 or 10 μM were used at 25° C. […] For these reasons, all further titration experiments were performed with a fixed peptide concentration of 0.1 μM unless otherwise indicated.

[4] = biological target: T1, CC2-LZ domain of NEMO (mouse CC2-LZ); assay: fluorescence polarization, labelled peptide fixed at 10 µM, CC2-LZ titrated
Method: as §1, §2

[5] = biological target: T2, NEMO (NF-kB essential modulator) in …; assay: cell-based or functional assay; remark: listed apart in the source
[6] = biological target: NEMO (NF-kB essential modulator), human, in DLBCL cell lines (human, UniProt Q9Y6K9 1-419); assay: cell-based or functional assay
Chain of NEMO (NF-kB essential modulator), human, in DLBCL cell lines (Q9Y6K9 whole entry): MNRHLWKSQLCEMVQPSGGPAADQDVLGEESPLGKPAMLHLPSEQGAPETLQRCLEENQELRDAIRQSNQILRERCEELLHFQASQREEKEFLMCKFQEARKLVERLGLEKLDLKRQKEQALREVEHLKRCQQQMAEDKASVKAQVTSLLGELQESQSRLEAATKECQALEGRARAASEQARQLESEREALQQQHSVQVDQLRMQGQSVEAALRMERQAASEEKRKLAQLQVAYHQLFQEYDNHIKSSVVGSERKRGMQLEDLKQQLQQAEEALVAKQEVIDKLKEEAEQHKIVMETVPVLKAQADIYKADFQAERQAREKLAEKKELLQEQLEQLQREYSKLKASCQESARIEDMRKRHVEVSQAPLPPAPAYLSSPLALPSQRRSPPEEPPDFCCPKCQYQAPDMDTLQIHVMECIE

T2 sequence (O88522 whole entry, the tested form may be a part): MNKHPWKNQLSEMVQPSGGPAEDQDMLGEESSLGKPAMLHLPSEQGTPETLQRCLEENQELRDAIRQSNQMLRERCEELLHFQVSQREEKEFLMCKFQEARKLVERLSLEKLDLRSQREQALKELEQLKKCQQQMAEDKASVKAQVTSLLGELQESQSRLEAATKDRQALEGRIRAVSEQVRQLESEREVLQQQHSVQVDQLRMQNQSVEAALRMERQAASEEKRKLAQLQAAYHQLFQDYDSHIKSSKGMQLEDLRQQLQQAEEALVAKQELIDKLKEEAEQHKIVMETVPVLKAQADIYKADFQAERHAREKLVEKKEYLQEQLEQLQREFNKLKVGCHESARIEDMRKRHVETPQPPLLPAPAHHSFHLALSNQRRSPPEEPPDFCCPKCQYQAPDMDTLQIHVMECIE
T1 sequence (O88522 251-337 limits assumed): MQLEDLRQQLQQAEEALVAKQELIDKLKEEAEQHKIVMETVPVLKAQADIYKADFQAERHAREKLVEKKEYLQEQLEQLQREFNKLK

B1: UBI-SAHN D306-Q313 OMe (peptide)
peptide: Ac-CLKAQA[R8]IYKARF[S5]A[GluOMe]RHAR[GluOMe]K
modifications: staple 7-14; also: N-terminal Cys labelled with BODIPY or FITC (which one not given here)
notes: also called D306 R8-Q313 S5 E315MeGlu E320MeGlu
Kd [1]: 24 µM
IC50, NF-κB inhibition in 70Z3-C3 reporter cells [2]: 1.9 µM

B2: UBI-SAHN A303-A310, conformer A (peptide)
peptide: Ac-CLK[R8]QADIYK[S5]RFQAERHAREK
modifications: staple 4-11; not fully specified (C-terminus); also: extra N-terminal Cys labelled with BODIPY or FITC (label not settled), staple isomer A (cis)
notes: also called UBI-SAHNA303-A310 (A); A303 R8-A310 S5
Kd [3]: 76 µM

B3: Co-UBI-SAHN I307-A314, conformer B (peptide)
peptide: Ac-CELAQLQAELD[R8]VQAVVQ[S5]DKQELRKL
modifications: staple 12-19; not fully specified (C-terminus); also: extra N-terminal Cys labelled with BODIPY or FITC (label not settled), staple isomer B (trans)
notes: 26 aa control peptide; also called Co-SAHN I307-A314 (B)
Kd [4]: > 10000 µM

B4: Co-UBI-SAHN I307-A314, conformer A (peptide)
peptide: Ac-CELAQLQAELD[R8]VQAVVQ[S5]DKQELRKL
modifications: staple 12-19; not fully specified (C-terminus); also: extra N-terminal Cys labelled with BODIPY or FITC (label not settled), staple isomer A (cis)
notes: 26 aa control peptide; also called Co-SAHN I307-A314 (A); I307 R8-A314 S5
Kd [4]: > 10000 µM

CLK[Aib]Q[Aib]DIYK[Aib]RFQ[Aib]ERH[Aib]REK (also: extra N-terminal Cys carries BODIPY or FITC label (not settled)) [UBI-AIB]
Kd [3]: > 10000 µM
Kd [4]: > 10000 µM

B5: A-UBI-SAHN A303-A310, conformer A (peptide)
peptide: Ac-CRQIKIWFQNRRMKWKKLK[R8]QADIYK[S5]RFQAERHAREK-NH2
modifications: staple 20-27; not fully specified; also: conformer A
notes: With N-terminal antennapedia; also called A-UBI-SAHNA303-A310 (A)
Kd [3]: 0.3 µM

B6: A-UBI-SAHN A303-A310, conformer B (peptide)
peptide: Ac-CRQIKIWFQNRRMKWKKLK[R8]QADIYK[S5]RFQAERHAREK-NH2
modifications: staple 20-27; also: Cys1 thiol labelled with BODIPY or FITC (which one not fixed), conformer B
notes: With N-terminal antennapedia
IC 50(µM), NF-κB inhibition in LPS-stimulated 70Z3-C3 lacZ reporter cells [5]: 0.6 µM
Kd [3]: 0.02 µM

B7: A-UBI-SAHN D306-Q313, conformer A (peptide)
peptide: Ac-CRQIKIWFQNRRMKWKKLKAQA[R8]IYKARF[S5]AERHAREK-NH2
modifications: staple 23-30; also: extra N-terminal Cys labelled with BODIPY or FITC (label not settled), staple isomer A (cis)
notes: With N-terminal antennapedia; also called A-UBI-SAHND306-Q313 (A)
IC 50(µM), NF-κB inhibition in LPS-stimulated 70Z3-C3 lacZ reporter cells [5]: 0.6 µM
Kd [3]: 0.06 µM

CRQIKIWFQNRRMKWKKLK[Aib]Q[Aib]DIYK[Aib]RFQ[Aib]ERH[Aib]REK (also: N-terminal Cys labelled with BODIPY or FITC) [A-UBI-AIB]
IC 50(µM), NF-κB inhibition in LPS-stimulated 70Z3-C3 lacZ reporter cells [5]: 1.5 µM
Kd [3]: 5 µM
Kd [4]: 24 µM

B8: UBI-SAHN A303-I307 (peptide)
peptide: Ac-CLK[S5]QAD[S5]YKARFQAERHAREK
modifications: staple 4-8; also: N-terminal Cys thiol labelled with BODIPY or FITC (BODIPY FL maleimide)
notes: Stapled i,i+4; also called A303 S5-I307 S5
Kd [3]: ~360 µM

B9: UBI-SAHN D306-A310 (peptide)
peptide: Ac-CLKAQA[S5]IYK[S5]RFQAERHAREK
modifications: staple 7-11; also: N-terminal Cys labelled with BODIPY or FITC, which one is not given here
notes: Stapled i,i+4; also called D306 R8-A310 S5
Kd [3]: 85 µM

LKAQA[S5]IYK[S5]RFQAQRHARQK (staple 6-10) [UBI-SAHN D306-A310 with the double substitution Glu-Gln (E315Q E320Q)]
IC50, NF-κB inhibition in 70Z3-C3 reporter cells [2]: 1.3 µM

B10: A-UBI-SAHN D306-Q313 OMe (peptide)
peptide: Ac-CRQIKIWFQNRRMKWKKLKAQA[R8]IYKARF[S5]A[GluOMe]RHAR[GluOMe]K-NH2
modifications: staple 23-30; also: N-terminal Cys labelled with BODIPY or FITC, which one is not given here
Kd [1]: 0.06 µM

B11: A-UBI-SAHN A310-A314 (peptide)
peptide: Ac-CRQIKIWFQNRRMKWKKLKAQADIYK[S5]RFQ[S5]ERHAREK-NH2
modifications: staple 27-31; also: N-terminal Cys thiol labelled with BODIPY or FITC (BODIPY FL maleimide)
notes: Stapled i,i+4 with N-terminal antennapedia
IC 50(µM), NF-κB inhibition in LPS-stimulated 70Z3-C3 lacZ reporter cells [5]: 0.43 µM
Kd [3]: 0.2 µM
Kd [4]: 21 µM

B12: UBI-SAHN D306-Q313 Q/Q (peptide)
peptide: Ac-CLKAQA[R8]IYKARF[S5]AQRHARQK
modifications: staple 7-14; not fully specified (C-terminus); printed as LKAQAX2IYKARFX5AQRHARQK; also: extra N-terminal Cys labelled with BODIPY or FITC, staple cis/trans isomer not given here
notes: also called D306 R8-Q313 S5 E315Q E320Q
Kd [1]: 23 µM
IC50, NF-κB inhibition in 70Z3-C3 reporter cells [2]: 0.8 µM

B13: UBI-SAHN A303-A310, conformer B (peptide)
peptide: Ac-CLK[R8]QADIYK[S5]RFQAERHAREK
modifications: staple 4-11; not fully specified (C-terminus); also: extra N-terminal Cys labelled with BODIPY or FITC (label not settled), staple isomer B (trans)
notes: also called UBI-SAHNA303-A310 (B)
Kd [3]: 211 µM

RQIKIWFQNRRMKWKKLKAQA[R8]IYKARF[S5]AERHAREK (staple 22-29; also: staple conformer not given here) [A-UBI-SAHN D306-Q313 (conformer not stated)]
EC50 of cell death, HLY1 cells, depending on incubation time [6]: 0.65 to 1.1 µM
EC50 of cell death, OCY-Ly3 cells, 7 h [6]: 2.6 µM
EC50 of cell death, OCY-Ly3 cells, 24 h [6]: 2.1 µM
EC50 of cell death, OCY-Ly3 cells, 48 h [6]: 5 µM

B14: A-UBI-SAHN D306-Q313, conformer B (peptide)
peptide: Ac-CRQIKIWFQNRRMKWKKLKAQA[R8]IYKARF[S5]AERHAREK-NH2
modifications: staple 23-30; also: extra N-terminal Cys labelled with BODIPY or FITC (label not settled), staple isomer B (trans)
notes: With N-terminal antennapedia; also called A-UBI-SAHND306-Q313 (B)
Kd [3]: 0.05 µM

B15: UBI-SAHN A310-A314 (peptide)
peptide: Ac-CLKAQADIYK[S5]RFQ[S5]ERHAREK
modifications: staple 11-15; also: N-terminal Cys thiol labelled with BODIPY or FITC (BODIPY FL maleimide)
notes: Stapled i,i+4; also called A310S5-A314 S5
Kd [3]: ~360 µM
